± gives the standard error. Fewer inactive variants are shown than the library holds.
B1: glmS ribozyme (parent)
chain: AUAAAAGCGCCAGAACUACAGAAAUGUAGUUGACGAGGAGGAGGUUUAUCGAAUUUUCGGCGGAUGCCUCCAAA

Variants of: B1
Test: self-cleavage kobs at 2500 uM GlcN6P; higher = faster cleavage; RNA array
Conditions: with glucosamine-6-phosphate
In short: (§1)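 Glucosamine-6-phosphate, from 40 μM to 10 mM in HEPES/KCl/Mg(OAc)2 buffer, was flowed over sequenced MiSeq chips carrying barcoded ribozyme variants transcribed in situ by E. coli RNA polymerase. A hybridised Cy3 probe tracked the variants at 37 °C as tiles were imaged over ~14 h. kobs, kcat and KM were obtained by fitting normalised per-tile medians to exponential decays and then applying weighted Michaelis–Menten fits across concentrations.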

Going from G44U U46A to G51C C67G C71U, the “self-cleavage kobs at 2500 uM GlcN6P” value falls from 0.000112 ± 3.8e-05 s⁻¹ to under 1e-05 s⁻¹.

Compared with G44U U46G C70U C71G, U47A A53G C70A is higher in “self-cleavage kobs at 2500 uM GlcN6P” value: under 1e-05 s⁻¹ for the first, 0.000177 ± 4e-05 s⁻¹ for the second.

Going from G44C G51A U55C U56C to A42G A48U U56A, the “self-cleavage kobs at 2500 uM GlcN6P” value rises from under 1e-05 s⁻¹ to 0.000146 ± 4.2e-05 s⁻¹.

U46G C61A C70G and U47A C50A G59U G66C cannot be ordered by “self-cleavage kobs at 2500 uM GlcN6P” value: under 1e-05 s⁻¹ for the first, under 1e-05 s⁻¹ for the second.

A48U G51A U57A and A42C U65C C71G cannot be ordered by “self-cleavage kobs at 2500 uM GlcN6P” value: under 1e-05 s⁻¹ for the first, under 1e-05 s⁻¹ for the second.

Compared with G43A G44A U47A G59C, A52G U57G C58U is higher in “self-cleavage kobs at 2500 uM GlcN6P” value: under 1e-05 s⁻¹ for the first, 4.96e-05 ± 1.8e-05 s⁻¹ for the second.

Going from A53G A64G C67G to G43A U46C A53G, the “self-cleavage kobs at 2500 uM GlcN6P” value falls from 0.000335 ± 9.1e-05 s⁻¹ to under 1e-05 s⁻¹.

Variants of: B1
Test: self-cleavage kobs at 10000 uM GlcN6P; higher = faster cleavage; RNA array
Conditions: with glucosamine-6-phosphate
In short: as §1

First: G44U U46A
Second: G37A C50G
The “self-cleavage kobs at 10000 uM GlcN6P” value of the first is higher: 0.000117 ± 2.9e-05 s⁻¹ for the first, under 1e-05 s⁻¹ for the second.

Going from C16A G29C A39C to G13U G44C U56C, the “self-cleavage kobs at 10000 uM GlcN6P” value falls from 0.000349 ± 6.1e-05 s⁻¹ to under 1e-05 s⁻¹.

Compared with A6C A12C C58G, G37A A42C is higher in “self-cleavage kobs at 10000 uM GlcN6P” value: under 1e-05 s⁻¹ for the first, 2.95e-05 ± 8.6e-06 s⁻¹ for the second.

Compared with A14C A23C, G32A C34U G51C is lower in “self-cleavage kobs at 10000 uM GlcN6P” value: 0.0057 ± 0.0012 s⁻¹ for the first, under 1e-05 s⁻¹ for the second.

Going from U30C U31G C70G to U30C G41A U54C, the “self-cleavage kobs at 10000 uM GlcN6P” value falls from 0.000168 ± 4.5e-05 s⁻¹ to under 1e-05 s⁻¹.

G7C U55G U56C U69A and C10G C16G A53G C68U cannot be ordered by “self-cleavage kobs at 10000 uM GlcN6P” value: under 1e-05 s⁻¹ for the first, under 1e-05 s⁻¹ for the second.

First: A33G C34U C50G C67U
Second: C10U G38U U46A C58U
The “self-cleavage kobs at 10000 uM GlcN6P” value of the first is higher: 0.000194 ± 3.6e-05 s⁻¹ for the first, under 1e-05 s⁻¹ for the second.

C16A U30C C61G and G9A C11U U30C A52U G62U cannot be ordered by “self-cleavage kobs at 10000 uM GlcN6P” value: under 1e-05 s⁻¹ for the first, under 1e-05 s⁻¹ for the second.

G7U G13U G63U and U31C G40C U54C U56A A64U cannot be ordered by “self-cleavage kobs at 10000 uM GlcN6P” value: under 1e-05 s⁻¹ for the first, under 1e-05 s⁻¹ for the second.

C10A G32A G60C G63A and G40A C58U C67G C71G cannot be ordered by “self-cleavage kobs at 10000 uM GlcN6P” value: under 1e-05 s⁻¹ for the first, under 1e-05 s⁻¹ for the second.

A12G G51U C58G and A33C G37U cannot be ordered by “self-cleavage kobs at 10000 uM GlcN6P” value: under 1e-05 s⁻¹ for the first, under 1e-05 s⁻¹ for the second.

Going from A12U C16G G29A C67G to A6G U31C C34G, the “self-cleavage kobs at 10000 uM GlcN6P” value falls from 0.000109 ± 2.3e-05 s⁻¹ to under 1e-05 s⁻¹.

Going from A14G G32A A52G to C8A G29U A52U U55A C71G, the “self-cleavage kobs at 10000 uM GlcN6P” value falls from 0.000409 ± 0.00011 s⁻¹ to under 1e-05 s⁻¹.

G41U G51U A53C and C8U G41U A48U C71G cannot be ordered by “self-cleavage kobs at 10000 uM GlcN6P” value: under 1e-05 s⁻¹ for the first, under 1e-05 s⁻¹ for the second.

First: C10G G13A G41C C50U C67A
Second: A39U C67G C71A
The “self-cleavage kobs at 10000 uM GlcN6P” value of the first is lower: under 1e-05 s⁻¹ for the first, 7.84e-05 ± 1.5e-05 s⁻¹ for the second.

G29A U31C U54G and A14U A42G C58A are within error of each other in “self-cleavage kobs at 10000 uM GlcN6P” value: 0.000213 ± 6.7e-05 s⁻¹ for the first, 0.000409 ± 0.00014 s⁻¹ for the second.

G7A U31C C50U U65G and C8U C34A A53C C71A cannot be ordered by “self-cleavage kobs at 10000 uM GlcN6P” value: under 1e-05 s⁻¹ for the first, under 1e-05 s⁻¹ for the second.

First: G13C U31C A39C
Second: U30A G44A C68G
The “self-cleavage kobs at 10000 uM GlcN6P” value of the first is higher: 2.61e-05 ± 1.3e-05 s⁻¹ for the first, under 1e-05 s⁻¹ for the second.

Compared with A12G C50U A52G U69G C71A, G37U C58G G63U is lower in “self-cleavage kobs at 10000 uM GlcN6P” value: 3.23e-05 ± 1.6e-05 s⁻¹ for the first, under 1e-05 s⁻¹ for the second.

G40U U47C G51A G59U C71U and A6G G29U G43C C61U C67U cannot be ordered by “self-cleavage kobs at 10000 uM GlcN6P” value: under 1e-05 s⁻¹ for the first, under 1e-05 s⁻¹ for the second.

Going from C34U G40U A42U to G7A U55A G66A C67U U69G, the “self-cleavage kobs at 10000 uM GlcN6P” value rises from under 1e-05 s⁻¹ to 0.000476 ± 0.00013 s⁻¹.

A15G C67A C68A and U30G A48C are within error of each other in “self-cleavage kobs at 10000 uM GlcN6P” value: 5.65e-05 ± 1.7e-05 s⁻¹ for the first, 5.11e-05 ± 1.6e-05 s⁻¹ for the second.

First: A39G C58G C67U
Second: G7C A14G A39C A48G A53U
The “self-cleavage kobs at 10000 uM GlcN6P” value of the first is higher: 3.44e-05 ± 1.2e-05 s⁻¹ for the first, under 1e-05 s⁻¹ for the second.

G13A G44U G62U C71G and C11U G38C C50A A53G G60C C68U cannot be ordered by “self-cleavage kobs at 10000 uM GlcN6P” value: under 1e-05 s⁻¹ for the first, under 1e-05 s⁻¹ for the second.

Going from C16A U46C U55C to C16U A33G A39U, the “self-cleavage kobs at 10000 uM GlcN6P” value falls from 7.09e-05 ± 1.6e-05 s⁻¹ to under 1e-05 s⁻¹.

First: U31C U47G C70G
Second: C11G U31C A36C
The “self-cleavage kobs at 10000 uM GlcN6P” value of the first is higher: 4.82e-05 ± 1.5e-05 s⁻¹ for the first, under 1e-05 s⁻¹ for the second.

Going from A33C A53G A64C to A15G U65A G66U, the “self-cleavage kobs at 10000 uM GlcN6P” value rises from under 1e-05 s⁻¹ to 0.000274 ± 4.1e-05 s⁻¹.

First: G13A A15U A53G G60U
Second: G26U A53C
The “self-cleavage kobs at 10000 uM GlcN6P” value of the first is lower: under 1e-05 s⁻¹ for the first, 0.00559 ± 0.0013 s⁻¹ for the second.

Compared with G29C A36C, A15G G41A U54A is higher in “self-cleavage kobs at 10000 uM GlcN6P” value: under 1e-05 s⁻¹ for the first, 9.17e-05 ± 2.8e-05 s⁻¹ for the second.

A6G C8U U30A G40C A64C U65A and A12C G29C G43C cannot be ordered by “self-cleavage kobs at 10000 uM GlcN6P” value: under 1e-05 s⁻¹ for the first, under 1e-05 s⁻¹ for the second.

Going from A12C C16A C67U to C11A G41U G43U G44A G51C G63A, the “self-cleavage kobs at 10000 uM GlcN6P” value falls from 0.000164 ± 3.3e-05 s⁻¹ to under 1e-05 s⁻¹.

Going from C19A C34G to A15G G60A, the “self-cleavage kobs at 10000 uM GlcN6P” value rises from under 1e-05 s⁻¹ to 3.03e-05 ± 1.1e-05 s⁻¹.

G43U G59C C68A and C8G G40C G59C C67G C71U cannot be ordered by “self-cleavage kobs at 10000 uM GlcN6P” value: under 1e-05 s⁻¹ for the first, under 1e-05 s⁻¹ for the second.

First: G29U U31G G32C C67A C68G
Second: G7A C11G A14C A48G A64G
The “self-cleavage kobs at 10000 uM GlcN6P” value of the first is higher: 5.79e-05 ± 2.8e-05 s⁻¹ for the first, under 1e-05 s⁻¹ for the second.

First: A14C G37A U45A U49A C50A C58U
Second: A36U U49A A53U
The “self-cleavage kobs at 10000 uM GlcN6P” value of the first is lower: under 1e-05 s⁻¹ for the first, 3.89e-05 ± 9.3e-06 s⁻¹ for the second.

With A36C G38U U47C G51C the “self-cleavage kobs at 10000 uM GlcN6P” value was under 1e-05 s⁻¹.

From the supplement of paper PMC7125110
